Test [1] deals with T1, CD4 receptor on cells (human, UniProt P01730 26-458).
T1 construct: whole, on cells; also called CD4 receptor on T cells; CD4+ T cells (A3.01, A3R5, J-Lat 10.6, human PBMC)
Nature of the test: cell binding assay, protein coated, A3.01, A2.01 and Tzmbl cells added, CellTiterGlo detection. In general terms: In ATP-based viability assays light output follows the ATP content of the culture.

For test [2], the target named is T2, soluble human CD4 receptor with full-length extracellular domain (amino acids 1-370) (human, UniProt P01730 26-396).
T2 construct: extracellular domain; also called soluble CD4; recombinant soluble CD4 (NIH AIDS Reagent program, 4615)
Nature of the test: ELISA, 0.1 ug protein coated per well, soluble CD4 added, detected with anti-CD4 antibody Sim.2. (ELISA stands for enzyme-linked immunosorbent assay.)

Results on 1 molecule are retold here after US20230026666A1 (CATHOLIC UNIVERSITY OF AMERICA, published 2023).

B1: Hoc (highly antigenic outer capsid protein), N-terminal hexa-histidine tag (other)
chain: HHHHHHMTFTVDITPKTPTGVIDETKQFTATPSGQTGGGTITYAWSVDNVPQDGAEATFSYVLKGPAGQKTIKVVATNTLSEGGPETAEATTTITVKNKTQTTTLAVTPASPAAGVIGTPVQFTAALASQPDGASATYQWYVDDSQVGGETNSTFSYTPTTSGVKRIKCVAQVTATDYDALSVTSNEVSLTVNKKTMNPQVTLTPPSINVQQDASATFTANVTGAPEEAQITYSWKKDSSPVEGSTNVYTVDTSSVGSQTIEVTATVTAADYNPVTVTKTGNVTVTAKVAPEPEGELPYVHPLPHRSSAYIWCGWWVMDEIQKMTEEGKDWKTDDPDSKYYLHRYTLQKMMKDYPEVDVQESRNGYIIHKTALETGIIYTYP
notes: Negative control
As to B1, the figures for the binding result in test [1] and in test [2] were “no binding (tested: 15 pmoles per well)” and “no binding”, respectively.
